{
  "source": "paper PMC2172719",
  "target": "Ufd1–Npl4ΔZF complex (UniProt Q9ES53)",
  "test": "co-IP",
  "data": [
    {"substance": "polyubiquitin chains with lysine 63 linkages (from UniProt P0CG53 1-76)", "values": [
      {"measurement": "percent of the input material bound", "value": "< 5", "unit": "%"}
    ]}
  ]
}
